Measured values reported in the supplement of paper PMC10126150.
± gives the standard deviation of the averaged measurements.

System: ATP
Assay: switch fluorescence ratio, 500 uM ATP over buffer (Cy3 cluster intensity, sum of 5 cycles each) (fold (ratio)); higher = stronger signal-on switching upon ATP binding; sequences stand for … in TCGTCGGCAGCGTCAGATGTGTATAAGAGACAGTTTTTTTTTTTTTTTTTTTTTTTTT…TC
Details: aptamer strand: ATP DNA aptamer (quencher-CACCTGGGGGAGTATTGCGGAGGAAGG + anchor), 100 nM annealed; ATP concentration: 500 uM
Method in brief: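 Cy3-labelled switching-strand clusters on a modified Illumina MiSeq flow-cell were annealed to 100 nM quencher-labelled ATP aptamer and imaged first in selection buffer, then after 15 min with 500 uM ATP at 22 °C. NaOH stripping and re-annealing separated each of five buffer/ATP cycles, and clusters outside 100-1000 RFU were excluded. The fluorescence ratio sums target-cycle Cy3 intensity over buffer-cycle Cy3 intensity per cluster and averages it per switch-domain sequence.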
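Also: ATP exposure 15 min at 22 °C before imaging.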

Sequence | switch fluorescence ratio
GACGGTTCAG | 1.03 ± 0.023
TGCGATTGTT | 1.01 ± 0.056
CGTTGGTGTG | 1 ± 0.028
TTAATGGAGG | 1.04 ± 0.017
TTTTGAGATC | 1.04 ± 0.045
TGGAGCCTGG | 0.984 ± 0.021
ACGTGACCCA | 1.35 ± 0.071
GGTGAAATTG | 1 ± 0.015
GGATTAGGGT | 0.975 ± 0.019
ATCAGGAAGT | 0.992 ± 0.062
GGGGGAAATA | 0.9815 ± 0.0055
GGGACTCCAA | 1.24 ± 0.35
AGGTATTTTT | 1.009 ± 0.0042
GGATCACACT | 1.02 ± 0.012
AAGATTTGAC | 1.003 ± 0.0085
TTTGGCAAGG | 1.01 ± 0.054
TTCAAGGGCA | 1.01 ± 0.027
GGCTTAAGGG | 0.972 ± 0.025
TTGGGGTAAC | 1.009 ± 0.01
GTAGGCAAAT | 1.029 ± 0.003
AGATAACTCT | 1.012 ± 0.0083
GATCGGATTA | 0.999 ± 0.024
GGCCGGGGGC | 0.994 ± 0.047
ACACAAATGA | 1.01 ± 0.024
CCTACATGTG | 1.26 ± 0.11
AATTTAGGGA | 1 ± 0.0089

Sequence | switch fluorescence ratio
CGAAAAGGAG | 1.01 ± 0.015
GCTTATATTT | 1.045 ± 0.0055
ATAATTTTCA | 1.01 ± 0.03
CATAGGGGGG | 0.988 ± 0.015
CTTTAGTACG | 0.9734 ± 0.0012
ATTATAAAGC | 1.03 ± 0.063
CTAGGATGTA | 0.986 ± 0.015
TAAGAGTGCT | 0.9726 ± 0.0043
CAATTTCGTT | 1.01 ± 0.021
ATGTACCGCG | 1.06 ± 0.016
GAAGTATGAT | 0.962 ± 0.042
GCTTGGCTGT | 0.999 ± 0.017
GAAATAAAAT | 1 ± 0.024
CAAAGTACGT | 1.18 ± 0.043
ATAGGACGGG | 0.967 ± 0.028
AGACTTTCTT | 1.04 ± 0.02
GGCATTTGAC | 1.02 ± 0.006
CGATGCTACA | 1.06 ± 0.048
AGGGGCGGTT | 0.978 ± 0.02
ATGTGGAGGG | 0.983 ± 0.033
GACTAACTAC | 1.251 ± 0.0087
CGTTCAGTTC | 0.972 ± 0.053
GGTTTAAGAA | 1.02 ± 0.023
AATTAGCATC | 1.06 ± 0.044
TGCATCGGGG | 0.983 ± 0.032
ATTTGGTTGG | 0.987 ± 0.044

Sequence | switch fluorescence ratio
TGGGGTAGAG | 0.97 ± 0.041
CGGATATGGC | 1.03 ± 0.1
CGAAGGCGTG | 1 ± 0.018
GAAGAGGGAT | 0.981 ± 0.049
TAGTAGATGT | 1.01 ± 0.036
GGGCGTCGGT | 0.984 ± 0.015
GCGATTATCT | 1.002 ± 0.0064
GGAACAAGGT | 0.988 ± 0.059
CGATATTGCA | 1.02 ± 0.025
TGATAAAGGT | 0.997 ± 0.015
CAATACTCAA | 2.14 ± 0.023
TCGGTGTGCA | 0.985 ± 0.024
AGTAAATTTG | 0.9918 ± 0.0076
AGATGGGTAC | 1.03 ± 0.029
CTGCGTAGGG | 1.04 ± 0.029
AGACGGCGGG | 0.996 ± 0.012
ATTGAGAGCA | 0.985 ± 0.021
TTAAATAATA | 1.09 ± 0.16
GATTGACCAT | 1.041 ± 0.0099
TAGAAAATGG | 1 ± 0.029
ACGGTTTTGC | 0.997 ± 0.013
AAGTGAGGCA | 0.963 ± 0.06
TTTTGGGA | 1.01 ± 0.064
TCTAAATAGC | 1.05 ± 0.038
TACAAGCTAA | 0.978 ± 0.032
TCTCATGTAG | 1.018 ± 0.009

Sequence | switch fluorescence ratio
CCTCTATGAT | 1.42 ± 0.044
TTTCGTTGTA | 0.973 ± 0.001
TTGAATAAAA | 1.005 ± 0.0096
AATTTGACGT | 0.981 ± 0.034
CGGAATGGTT | 1.04 ± 0.036
TAATTGAGCA | 0.99 ± 0.019
TTCCGGATGG | 1.01 ± 0.021
TAAAGATAGC | 1.02 ± 0.064
GGTATGGCGA | 0.939 ± 0.048
AATATGGAGC | 1.08 ± 0.14
AATGGCTGGT | 0.994 ± 0.017
CTATATGGAC | 1.05 ± 0.017
GACTAGTTAT | 0.993 ± 0.019
TAGAGTGGGG | 0.994 ± 0.023
GGTTTATGAA | 0.999 ± 0.018
CTTTCCTATG | 1.07 ± 0.019
GTTACTAATG | 0.9996 ± 0.0029
CGCGTAGAC | 1.66 ± 0.14
ATTAGTGAGC | 1.03 ± 0.051
ATACTGGGAT | 1.031 ± 0.0015
CGCGCAGGGA | 1.03 ± 0.013
GTAGTTTTGA | 0.981 ± 0.018
GGGGAAGTTT | 0.998 ± 0.027
ACGGACCATG | 1.11 ± 0.042
TGTGGTCTGA | 1.01 ± 0.09
CTCAGTTATG | 1.0176 ± 0.00079

Sequence | switch fluorescence ratio
TAGGAGTGAG | 0.979 ± 0.026
TCAACGGGGG | 1.08 ± 0.17
CGGGCTTTTT | 1.016 ± 0.0065
CAGTGAATGT | 0.976 ± 0.039
GGGGGCGGAG | 0.992 ± 0.024
GGTTAATAGG | 0.99 ± 0.013
CCCGGGTTGT | 1.16 ± 0.12
CATGAATAG | 0.994 ± 0.011
CTCTGGACAG | 0.9718 ± 0.0089
TTTAGACAAT | 1.02 ± 0.022
AGCGATCGGT | 1.03 ± 0.014
AATTATACGT | 1.05 ± 0.014
ATGTTATTTT | 1.013 ± 0.0049
GGGTTTTGGA | 0.998 ± 0.039
CGCAGAGTGG | 1.01 ± 0.018
AGCGAAGATG | 1 ± 0.033
GATTGAAAGC | 0.962 ± 0.045
CGAGCGGTTG | 0.999 ± 0.013
TGGGTAGTAT | 0.977 ± 0.012
TACTGAGCAT | 1.24 ± 0.086
TACCAATGGA | 1.02 ± 0.04
TTTATGGGAT | 0.986 ± 0.032
CAGGTCTTAT | 1.01 ± 0.028
TAAGTCCCCA | 1.01 ± 0.052
CGGGGTTAGC | 1.01 ± 0.014
AGGAGTTGAA | 0.978 ± 0.016

Sequence | switch fluorescence ratio
CGATTGCTAG | 1.02 ± 0.058
GTTGTAGATG | 1.005 ± 0.0058
TCTTTTTTGC | 0.986 ± 0.073
AAATGGTACT | 1.01 ± 0.035
AACAATTATA | 1.011 ± 0.0078
ATCAGATGAT | 1.0009 ± 0.00017
GTGGGTTTGG | 0.999 ± 0.049
TTTCTTTCAA | 1.01 ± 0.021
CGCGCTTTTG | 1.01 ± 0.017
GATTTACCAG | 1.03 ± 0.027
TGGGACTTAG | 1.017 ± 0.0022
ACGCAGTATG | 1.03 ± 0.031
GACTTGAATG | 0.976 ± 0.011
ATAGAAAAAT | 1.003 ± 0.0098
GGGCGCTTCT | 0.9913 ± 0.0072
TTGAGTGTTT | 1.02 ± 0.017
GCTATAGTCG | 1.022 ± 0.0027
CTTGTCGTGC | 0.995 ± 0.033
AGAGTGGGCC | 0.956 ± 0.07
GAATTGGTTT | 0.999 ± 0.017
CAAGACTTCG | 1.01 ± 0.052
TTCAGTTGCA | 1.01 ± 0.024
TAAAATTGAA | 0.9905 ± 0.0041
